Earlier results in PMC8027070.
Where two headings read alike, the source gives them in different places.

What was measured:
VIP (Homo sapiens) [1] = target: VIP (Homo sapiens) (UniProt P01282)
PACAP (Homo sapiens) [2] = target: PACAP (Homo sapiens) (UniProt P18509)
VIP (Homo sapiens) [3] = target: VIP (Homo sapiens) (UniProt P01282); remark: listed apart in the source
PACAP (Homo sapiens) [4] = target: PACAP (Homo sapiens) (UniProt P18509); remark: listed apart in the source
PACAP (Homo sapiens) [5] = target: PACAP (Homo sapiens) (UniProt P18509); remark: listed apart in the source
VIP (Homo sapiens) [6] = target: VIP (Homo sapiens) (UniProt P01282); remark: listed apart in the source

UniProt P01282, sequence (P01282 125-152): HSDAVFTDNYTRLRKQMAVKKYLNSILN
UniProt P18509, sequence (P18509 82-129): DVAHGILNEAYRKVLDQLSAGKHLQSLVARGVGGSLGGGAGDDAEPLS

Substance: VPAC2 receptor (from UniProt P41587)
- Kd (VIP (Homo sapiens) [1]): 1 nM
- Kd (PACAP (Homo sapiens) [2]): 1 nM

Substance: PAC1 receptor (from UniProt P41586)
- Kd (VIP (Homo sapiens) [3]): > 500 nM
- Kd (PACAP (Homo sapiens) [4]): 0.5 nM

Substance: VPAC1 receptor (from UniProt P32241)
- Kd (PACAP (Homo sapiens) [5]): 1 nM
- Kd (VIP (Homo sapiens) [6]): 1 nM
